Measured values from article PMC9482650, “Quantitative fragmentomics allow affinity mapping of interactomes” (Nature Communications, 2022).

Assays:
Test in all cases: holdup assay
Set-up in all cases: key: below the threshold = too weak to quantify, mostly under pKd 3.1 to 4
TJP2_1, Q9UDY2 = biological target: TJP2_1, Q9UDY2
FRMPD2_2, Q68DX3 = biological target: FRMPD2_2, Q68DX3
CARD11, Q9BXL7 = biological target: T1, CARD11, Q9BXL7
T1 sequence (Q9BXL7 662-765, limits assumed, looked up): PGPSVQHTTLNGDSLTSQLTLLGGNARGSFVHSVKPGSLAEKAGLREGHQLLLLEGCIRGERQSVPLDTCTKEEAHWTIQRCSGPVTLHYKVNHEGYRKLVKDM

Inadl_6, Q8NI35 = biological target: Inadl_6, Q8NI35
Inadl_6, Q8NI35, sequence (Q8NI35 1058-1167): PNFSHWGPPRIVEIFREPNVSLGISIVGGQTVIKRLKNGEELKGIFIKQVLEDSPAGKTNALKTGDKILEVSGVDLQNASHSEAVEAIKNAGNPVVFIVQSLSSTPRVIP

TJP1_2, Q07157 = biological target: TJP1_2, Q07157
TJP1_2, Q07157, sequence (Q07157 181-274): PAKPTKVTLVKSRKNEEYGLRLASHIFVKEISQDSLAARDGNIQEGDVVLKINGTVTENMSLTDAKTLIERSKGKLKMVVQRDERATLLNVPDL

DLG3_2, Q92796 = biological target: T2, DLG3_2, Q92796
T2 sequence (Q92796 221-321, limits assumed, looked up): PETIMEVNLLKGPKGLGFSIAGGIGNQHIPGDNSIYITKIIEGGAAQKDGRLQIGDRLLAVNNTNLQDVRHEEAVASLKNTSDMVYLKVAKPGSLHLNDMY

TJP3_3, O95049 = biological target: T3, TJP3_3, O95049
T3 sequence (O95049 375-456, limits assumed, looked up): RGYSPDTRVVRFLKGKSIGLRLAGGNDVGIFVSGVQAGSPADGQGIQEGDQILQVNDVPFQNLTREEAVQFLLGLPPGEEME

LIN7A, O14910 = biological target: T4, LIN7A, O14910
T4 sequence (O14910 103-200, limits assumed, looked up): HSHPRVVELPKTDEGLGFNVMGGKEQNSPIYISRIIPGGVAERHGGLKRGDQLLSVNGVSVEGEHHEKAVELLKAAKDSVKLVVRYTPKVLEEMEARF

MAGI2_3, Q86UL8 = biological target: MAGI2_3, Q86UL8
MAGI2_3, Q86UL8, sequence (Q86UL8 600-682): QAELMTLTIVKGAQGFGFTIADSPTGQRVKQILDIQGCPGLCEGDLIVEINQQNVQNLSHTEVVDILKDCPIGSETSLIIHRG

NHERF4_2, Q86UT5 = biological target: NHERF4_2, Q86UT5
NHERF4_2, Q86UT5, sequence (Q86UT5 220-308): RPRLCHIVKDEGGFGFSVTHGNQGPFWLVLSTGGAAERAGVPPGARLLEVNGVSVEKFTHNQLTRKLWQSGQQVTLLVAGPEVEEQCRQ

NHERF3_3, Q5T2W1 = biological target: T5, NHERF3_3, Q5T2W1
T5 sequence (Q5T2W1 238-333, limits assumed, looked up): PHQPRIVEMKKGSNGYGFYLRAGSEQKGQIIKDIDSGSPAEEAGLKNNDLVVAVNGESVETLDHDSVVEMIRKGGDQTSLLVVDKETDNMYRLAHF

LRRC7, Q96NW7 = biological target: T6, LRRC7, Q96NW7
T6 sequence (Q96NW7 1440-1537, limits assumed, looked up): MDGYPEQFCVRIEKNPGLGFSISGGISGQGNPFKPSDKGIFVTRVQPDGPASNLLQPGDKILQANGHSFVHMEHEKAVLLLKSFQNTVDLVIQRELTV

Inadl_8, Q8NI35 = biological target: Inadl_8, Q8NI35
Inadl_8, Q8NI35, sequence (Q8NI35 1425-1530): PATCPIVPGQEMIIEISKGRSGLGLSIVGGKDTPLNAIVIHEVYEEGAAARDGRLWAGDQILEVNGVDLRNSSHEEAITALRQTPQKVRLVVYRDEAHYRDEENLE

LNX1_1, Q8TBB1 = biological target: LNX1_1, Q8TBB1
LNX1_1, Q8TBB1, sequence (Q8TBB1 261-371): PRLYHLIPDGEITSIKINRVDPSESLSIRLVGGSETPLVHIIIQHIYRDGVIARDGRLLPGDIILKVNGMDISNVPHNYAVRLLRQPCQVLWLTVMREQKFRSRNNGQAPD

SNTB1, Q13884 = biological target: T7, SNTB1, Q13884
T7 sequence (Q13884 107-205, limits assumed, looked up): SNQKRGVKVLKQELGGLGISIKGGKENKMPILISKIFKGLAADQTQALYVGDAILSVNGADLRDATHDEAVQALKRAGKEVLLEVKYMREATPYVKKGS

GRID2IP_2, A4D2P6 = biological target: GRID2IP_2, A4D2P6
GRID2IP_2, A4D2P6, sequence (A4D2P6 272-370): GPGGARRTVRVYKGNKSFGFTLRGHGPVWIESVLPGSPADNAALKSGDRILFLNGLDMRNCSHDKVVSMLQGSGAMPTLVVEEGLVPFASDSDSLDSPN

AHNAK1, Q09666 = biological target: AHNAK1, Q09666
AHNAK1, Q09666, sequence (Q09666 4-100): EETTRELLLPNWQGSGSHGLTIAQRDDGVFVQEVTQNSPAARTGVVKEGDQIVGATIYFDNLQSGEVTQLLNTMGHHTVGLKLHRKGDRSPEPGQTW

PICK1, Q9NRD5 = biological target: PICK1, Q9NRD5
PICK1, Q9NRD5, sequence (Q9NRD5 17-115): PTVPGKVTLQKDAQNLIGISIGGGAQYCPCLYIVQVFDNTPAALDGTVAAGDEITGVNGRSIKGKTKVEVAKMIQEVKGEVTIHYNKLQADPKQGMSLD

Inadl_2, Q8NI35 = biological target: Inadl_2, Q8NI35
Inadl_2, Q8NI35, sequence (Q8NI35 238-335): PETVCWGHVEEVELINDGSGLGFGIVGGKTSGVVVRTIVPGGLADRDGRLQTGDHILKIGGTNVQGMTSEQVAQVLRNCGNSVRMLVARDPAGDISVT

DLG3_1, Q92796 = biological target: T8, DLG3_1, Q92796
T8 sequence (Q92796 125-227, limits assumed, looked up): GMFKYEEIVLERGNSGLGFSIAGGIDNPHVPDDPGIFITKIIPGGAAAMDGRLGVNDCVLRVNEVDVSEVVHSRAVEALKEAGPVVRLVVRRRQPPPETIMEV

MAGI2_5, Q86UL8 = biological target: MAGI2_5, Q86UL8
MAGI2_5, Q86UL8, sequence (Q86UL8 915-1017): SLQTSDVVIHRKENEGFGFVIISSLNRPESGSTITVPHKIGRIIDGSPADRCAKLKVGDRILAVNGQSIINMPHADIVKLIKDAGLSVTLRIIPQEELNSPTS

MPDZ_5, O75970 = biological target: T9, MPDZ_5, O75970
T9 sequence (O75970 695-796, limits assumed, looked up): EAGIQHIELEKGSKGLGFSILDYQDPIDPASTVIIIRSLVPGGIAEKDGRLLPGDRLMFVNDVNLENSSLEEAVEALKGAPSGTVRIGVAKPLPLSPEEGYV

DLG2_3, Q15700 = biological target: DLG2_3, Q15700
NHERF3_1, Q5T2W1 = biological target: T10, NHERF3_1, Q5T2W1
T10 sequence (Q5T2W1 4-100, limits assumed, looked up): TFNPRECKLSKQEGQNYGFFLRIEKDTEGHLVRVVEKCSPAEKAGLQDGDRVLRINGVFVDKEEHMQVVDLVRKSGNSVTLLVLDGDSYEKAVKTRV

FRMPD4, Q14CM0 = biological target: FRMPD4, Q14CM0
FRMPD4, Q14CM0, sequence (Q14CM0 67-160): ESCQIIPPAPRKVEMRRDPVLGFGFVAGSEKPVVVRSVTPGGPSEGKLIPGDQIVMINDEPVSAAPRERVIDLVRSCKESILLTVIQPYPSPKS

LIN7C, Q9NUP9 = biological target: T11, LIN7C, Q9NUP9
T11 sequence (Q9NUP9 88-185, limits assumed, looked up): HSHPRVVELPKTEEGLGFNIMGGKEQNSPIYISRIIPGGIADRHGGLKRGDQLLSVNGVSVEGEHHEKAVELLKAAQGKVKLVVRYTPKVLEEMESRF

[1] = plain residues with an end cap or a label only (N-terminal biotin on a linker: ttds)
[2] = plain residues with an end cap or a label only (N-terminal biotin on a linker: ahx)
[3] = plain residues with an end cap or a label only (N-terminal biotin on a linker: gsgsgs; C-terminal amide)

FRMPD2_2, Q68DX3, sequence (Q68DX3 944-1038): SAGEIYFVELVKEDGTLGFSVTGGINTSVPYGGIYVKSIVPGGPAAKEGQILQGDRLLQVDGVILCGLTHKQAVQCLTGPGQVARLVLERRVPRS
TJP2_1, Q9UDY2, sequence (Q9UDY2 24-128): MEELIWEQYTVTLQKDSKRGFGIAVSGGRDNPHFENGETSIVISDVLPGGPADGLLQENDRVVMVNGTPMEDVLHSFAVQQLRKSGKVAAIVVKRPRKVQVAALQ

SSRTRRETQL [HPV16-E6, P03126]
pKd (TJP2_1, Q9UDY2; [1]): 4.12 | pKd (FRMPD2_2, Q68DX3; [1]): below the threshold | pKd (CARD11, Q9BXL7; [1]): below the threshold | pKd (Inadl_6, Q8NI35; [1]): 3.49 | pKd (TJP1_2, Q07157; [1]): below the threshold | pKd (DLG3_2, Q92796; [1]): 4.8 | pKd (TJP3_3, O95049; [1]): 3.68 | pKd (LIN7A, O14910; [1]): below the threshold | pKd (MAGI2_3, Q86UL8; [1]): 3.67 | pKd (NHERF4_2, Q86UT5; [1]): below the threshold | pKd (NHERF3_3, Q5T2W1; [1]): 3.72 | pKd (LRRC7, Q96NW7; [1]): 3.9 | pKd (Inadl_8, Q8NI35; [1]): below the threshold | pKd (LNX1_1, Q8TBB1; [1]): 3.51 | pKd (SNTB1, Q13884; [1]): 4.92 | pKd (GRID2IP_2, A4D2P6; [1]): 3.86 | pKd (AHNAK1, Q09666; [1]): below the threshold | pKd (PICK1, Q9NRD5; [1]): below the threshold | pKd (Inadl_2, Q8NI35; [1]): below the threshold | pKd (DLG3_1, Q92796; [1]): 3.96 | pKd (MAGI2_5, Q86UL8; [1]): 3.93 | pKd (MPDZ_5, O75970; [1]): 3.67 | pKd (DLG2_3, Q15700; [1]): 5.1 | pKd (NHERF3_1, Q5T2W1; [1]): 5.62 | pKd (FRMPD4, Q14CM0; [1]): 3.83 | pKd (LIN7C, Q9NUP9; [1]): 4.04

IYVPEAQTRL [DLGAP4, Q9Y2H0]
pKd (TJP2_1, Q9UDY2; [1]): below the threshold | pKd (FRMPD2_2, Q68DX3; [1]): below the threshold | pKd (CARD11, Q9BXL7; [1]): below the threshold | pKd (Inadl_6, Q8NI35; [1]): below the threshold | pKd (TJP1_2, Q07157; [1]): below the threshold | pKd (DLG3_2, Q92796; [1]): below the threshold | pKd (TJP3_3, O95049; [1]): below the threshold | pKd (LIN7A, O14910; [1]): below the threshold | pKd (MAGI2_3, Q86UL8; [1]): below the threshold | pKd (NHERF4_2, Q86UT5; [1]): below the threshold | pKd (NHERF3_3, Q5T2W1; [1]): 4.14 | pKd (LRRC7, Q96NW7; [1]): below the threshold | pKd (Inadl_8, Q8NI35; [1]): below the threshold | pKd (LNX1_1, Q8TBB1; [1]): below the threshold | pKd (SNTB1, Q13884; [1]): 4.2 | pKd (GRID2IP_2, A4D2P6; [1]): 4.08 | pKd (AHNAK1, Q09666; [1]): below the threshold | pKd (PICK1, Q9NRD5; [1]): below the threshold | pKd (Inadl_2, Q8NI35; [1]): below the threshold | pKd (DLG3_1, Q92796; [1]): below the threshold | pKd (MAGI2_5, Q86UL8; [1]): 3.82 | pKd (MPDZ_5, O75970; [1]): below the threshold | pKd (DLG2_3, Q15700; [1]): below the threshold | pKd (NHERF3_1, Q5T2W1; [1]): 5.25 | pKd (FRMPD4, Q14CM0; [1]): 4.25 | pKd (LIN7C, Q9NUP9; [1]): below the threshold

HTHSYIETHV [CNKSR2, Q8WXI2]
pKd (TJP2_1, Q9UDY2; [2]): 4.46 | pKd (FRMPD2_2, Q68DX3; [2]): 4.83 | pKd (CARD11, Q9BXL7; [2]): below the threshold | pKd (Inadl_6, Q8NI35; [2]): 4.22 | pKd (TJP1_2, Q07157; [2]): below the threshold | pKd (DLG3_2, Q92796; [2]): 5.04 | pKd (TJP3_3, O95049; [2]): below the threshold | pKd (LIN7A, O14910; [2]): below the threshold | pKd (MAGI2_3, Q86UL8; [2]): 3.98 | pKd (NHERF4_2, Q86UT5; [2]): below the threshold | pKd (NHERF3_3, Q5T2W1; [2]): below the threshold | pKd (LRRC7, Q96NW7; [2]): 4.75 | pKd (Inadl_8, Q8NI35; [2]): below the threshold | pKd (LNX1_1, Q8TBB1; [2]): 3.85 | pKd (SNTB1, Q13884; [2]): 4.6 | pKd (GRID2IP_2, A4D2P6; [2]): below the threshold | pKd (AHNAK1, Q09666; [2]): below the threshold | pKd (PICK1, Q9NRD5; [2]): below the threshold | pKd (Inadl_2, Q8NI35; [2]): below the threshold | pKd (DLG3_1, Q92796; [2]): 4.08 | pKd (MAGI2_5, Q86UL8; [2]): 4.83 | pKd (MPDZ_5, O75970; [2]): below the threshold | pKd (DLG2_3, Q15700; [2]): 4.54 | pKd (NHERF3_1, Q5T2W1; [2]): 5.14 | pKd (FRMPD4, Q14CM0; [2]): below the threshold | pKd (LIN7C, Q9NUP9; [2]): 3.67

ERKLSSESQV [LRP4, O75096]
pKd (TJP2_1, Q9UDY2; [1]): below the threshold | pKd (FRMPD2_2, Q68DX3; [1]): 3.48 | pKd (CARD11, Q9BXL7; [1]): below the threshold | pKd (Inadl_6, Q8NI35; [1]): below the threshold | pKd (TJP1_2, Q07157; [1]): below the threshold | pKd (DLG3_2, Q92796; [1]): 4.6 | pKd (TJP3_3, O95049; [1]): below the threshold | pKd (LIN7A, O14910; [1]): below the threshold | pKd (MAGI2_3, Q86UL8; [1]): below the threshold | pKd (NHERF4_2, Q86UT5; [1]): below the threshold | pKd (NHERF3_3, Q5T2W1; [1]): below the threshold | pKd (LRRC7, Q96NW7; [1]): below the threshold | pKd (Inadl_8, Q8NI35; [1]): below the threshold | pKd (LNX1_1, Q8TBB1; [1]): below the threshold | pKd (SNTB1, Q13884; [1]): 4.05 | pKd (GRID2IP_2, A4D2P6; [1]): below the threshold | pKd (AHNAK1, Q09666; [1]): below the threshold | pKd (PICK1, Q9NRD5; [1]): below the threshold | pKd (Inadl_2, Q8NI35; [1]): below the threshold | pKd (DLG3_1, Q92796; [1]): 3.81 | pKd (MAGI2_5, Q86UL8; [1]): 4.08 | pKd (MPDZ_5, O75970; [1]): below the threshold | pKd (DLG2_3, Q15700; [1]): 4.11 | pKd (NHERF3_1, Q5T2W1; [1]): below the threshold | pKd (FRMPD4, Q14CM0; [1]): below the threshold | pKd (LIN7C, Q9NUP9; [1]): below the threshold

TLSLTDSSVDGIPPYR [AXIN1_int, O15169]
pKd (TJP2_1, Q9UDY2; [3]): below the threshold | pKd (FRMPD2_2, Q68DX3; [3]): below the threshold | pKd (CARD11, Q9BXL7; [3]): below the threshold | pKd (Inadl_6, Q8NI35; [3]): below the threshold | pKd (TJP1_2, Q07157; [3]): below the threshold | pKd (DLG3_2, Q92796; [3]): 4.08 | pKd (TJP3_3, O95049; [3]): below the threshold | pKd (LIN7A, O14910; [3]): below the threshold | pKd (MAGI2_3, Q86UL8; [3]): below the threshold | pKd (NHERF4_2, Q86UT5; [3]): below the threshold | pKd (NHERF3_3, Q5T2W1; [3]): below the threshold | pKd (LRRC7, Q96NW7; [3]): below the threshold | pKd (Inadl_8, Q8NI35; [3]): below the threshold | pKd (LNX1_1, Q8TBB1; [3]): below the threshold | pKd (SNTB1, Q13884; [3]): below the threshold | pKd (GRID2IP_2, A4D2P6; [3]): below the threshold | pKd (AHNAK1, Q09666; [3]): below the threshold | pKd (PICK1, Q9NRD5; [3]): below the threshold | pKd (Inadl_2, Q8NI35; [3]): below the threshold | pKd (DLG3_1, Q92796; [3]): below the threshold | pKd (MAGI2_5, Q86UL8; [3]): below the threshold | pKd (MPDZ_5, O75970; [3]): below the threshold | pKd (DLG2_3, Q15700; [3]): 3.67 | pKd (NHERF3_1, Q5T2W1; [3]): below the threshold | pKd (FRMPD4, Q14CM0; [3]): below the threshold | pKd (LIN7C, Q9NUP9; [3]): 3.97
